Assay results as given in patent publication US20180155451A1 (published 2018).

B1: GpH7-B3 variant S239_10E/GpL16-k0 (antibody, human IgG1, kappa)
heavy: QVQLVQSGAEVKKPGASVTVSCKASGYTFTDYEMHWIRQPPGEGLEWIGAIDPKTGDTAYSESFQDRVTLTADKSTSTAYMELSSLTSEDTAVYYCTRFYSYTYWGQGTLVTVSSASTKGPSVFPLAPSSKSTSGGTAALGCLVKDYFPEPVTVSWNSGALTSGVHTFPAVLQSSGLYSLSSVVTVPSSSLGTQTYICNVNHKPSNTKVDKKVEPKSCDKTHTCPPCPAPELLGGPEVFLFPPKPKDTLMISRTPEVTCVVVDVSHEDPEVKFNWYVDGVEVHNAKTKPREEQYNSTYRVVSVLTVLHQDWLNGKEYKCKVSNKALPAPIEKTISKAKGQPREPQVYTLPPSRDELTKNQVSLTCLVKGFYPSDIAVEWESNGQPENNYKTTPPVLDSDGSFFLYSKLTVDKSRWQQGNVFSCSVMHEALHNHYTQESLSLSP
light: DIVMTQSPLSLPVTPGEPASISCQASESLVHSNRNTYLHWYLQKPGQSPQLLIYKVSNRFSGVPDRFSGSGSGTDFTLKISRVEAEDVGVYYCSQNTHVPPTFGQGTKVEIERTVAAPSVFIFPPSDEQLKSGTASVVCLLNNFYPREAKVQWKVDNALQSGNSQESVTEQDSKDSTYSLSSTLTLSKADYEKHKVYACEVTHQGLSSPVTKSFNRGEC
notes: also called Ho Ab S239_10E
B2: GpH7-A5/GpH7-B3 variant G237_02A/GpL16-k0 (antibody, human IgG1, kappa)
heavy 1: not shown
heavy 2: not shown
light: B1 light
notes: also called He Ab G237_02A
B3: GpH7-A5/GpH7-B3 variant G237_06M/GpL16-k0 (antibody, human IgG1, kappa)
heavy 1: not shown
heavy 2: not shown
light: B1 light
notes: also called He Ab G237_06M
B4: GpH7-B3 variant V266_06M/GpL16-k0 (antibody, human IgG1, kappa)
heavy: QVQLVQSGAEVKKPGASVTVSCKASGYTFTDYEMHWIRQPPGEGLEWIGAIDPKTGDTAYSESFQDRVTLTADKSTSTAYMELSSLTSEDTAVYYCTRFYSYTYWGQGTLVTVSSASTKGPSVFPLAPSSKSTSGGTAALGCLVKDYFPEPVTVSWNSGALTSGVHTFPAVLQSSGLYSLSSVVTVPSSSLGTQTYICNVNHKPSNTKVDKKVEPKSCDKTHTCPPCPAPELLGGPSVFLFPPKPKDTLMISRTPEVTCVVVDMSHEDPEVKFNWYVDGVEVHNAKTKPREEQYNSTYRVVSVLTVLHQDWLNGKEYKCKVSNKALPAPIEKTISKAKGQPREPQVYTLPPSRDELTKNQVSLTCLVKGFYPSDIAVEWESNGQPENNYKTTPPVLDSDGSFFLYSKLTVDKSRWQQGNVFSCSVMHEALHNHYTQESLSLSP
light: B1 light
notes: also called Ho Ab V266_06M
B5: GpH7-A5/GpH7-B3 variant I332_02A/GpL16-k0 (antibody, human IgG1, kappa)
heavy 1: not shown
heavy 2: not shown
light: B1 light
notes: also called He Ab I332_02A
B6: GpH7-B3 variant T335_13S/GpL16-k0 (antibody, human IgG1, kappa)
heavy: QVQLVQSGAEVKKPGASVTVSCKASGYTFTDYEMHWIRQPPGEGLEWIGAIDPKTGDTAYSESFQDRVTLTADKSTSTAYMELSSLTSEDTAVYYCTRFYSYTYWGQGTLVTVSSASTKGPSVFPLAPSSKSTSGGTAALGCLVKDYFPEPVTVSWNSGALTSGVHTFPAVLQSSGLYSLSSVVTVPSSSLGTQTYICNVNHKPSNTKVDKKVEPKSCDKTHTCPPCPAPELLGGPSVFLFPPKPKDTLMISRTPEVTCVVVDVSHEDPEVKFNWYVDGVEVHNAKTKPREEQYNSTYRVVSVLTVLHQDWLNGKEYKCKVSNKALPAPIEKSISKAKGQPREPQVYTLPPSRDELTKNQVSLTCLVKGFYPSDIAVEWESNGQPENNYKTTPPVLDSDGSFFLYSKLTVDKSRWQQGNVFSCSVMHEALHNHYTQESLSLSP
light: B1 light
notes: also called Ho Ab T335_13S
B7: GpH7-A5/GpH7-B3 variant L234_20W/GpL16-k0 (antibody, human IgG1, kappa)
heavy 1: not shown
heavy 2: not shown
light: B1 light
notes: also called He Ab L234_20W
B8: GpH7-B3 variant S267_01G/GpL16-k0 (antibody, human IgG1, kappa)
heavy: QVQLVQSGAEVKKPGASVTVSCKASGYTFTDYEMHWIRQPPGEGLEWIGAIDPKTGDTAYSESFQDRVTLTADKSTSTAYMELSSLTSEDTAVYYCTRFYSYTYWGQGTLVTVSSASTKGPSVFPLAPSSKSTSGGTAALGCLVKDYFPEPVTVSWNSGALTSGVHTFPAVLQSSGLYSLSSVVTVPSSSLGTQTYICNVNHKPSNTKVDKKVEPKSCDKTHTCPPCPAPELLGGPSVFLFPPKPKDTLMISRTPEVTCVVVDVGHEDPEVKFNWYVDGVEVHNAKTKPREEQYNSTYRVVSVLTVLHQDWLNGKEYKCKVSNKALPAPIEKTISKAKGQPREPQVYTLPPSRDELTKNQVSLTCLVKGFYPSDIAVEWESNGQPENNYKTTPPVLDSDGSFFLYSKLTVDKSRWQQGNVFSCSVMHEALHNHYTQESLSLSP
light: B1 light
notes: also called Ho Ab S267_01G
B9: GpH7-A5/GpH7-B3 variant A330_01G/GpL16-k0 (antibody, human IgG1, kappa)
heavy 1: not shown
heavy 2: not shown
light: B1 light
notes: also called He Ab A330_01G
B10: GpH7-A5/GpH7-B3 variant G237_08L/GpL16-k0 (antibody, human IgG1, kappa)
heavy 1: not shown
heavy 2: not shown
light: B1 light
notes: also called He Ab G237_08L
B11: GpH7-A5/GpH7-B3 variant A327_07I/GpL16-k0 (antibody, human IgG1, kappa)
heavy 1: not shown
heavy 2: not shown
light: B1 light
notes: also called He Ab A327_07I
B12: GpH7-A5/GpH7-B3 variant K326_07I/GpL16-k0 (antibody, human IgG1, kappa)
heavy 1: not shown
heavy 2: not shown
light: B1 light
notes: also called He Ab K326_07I
B13: GpH7-B3 variant T335_19Q/GpL16-k0 (antibody, human IgG1, kappa)
heavy: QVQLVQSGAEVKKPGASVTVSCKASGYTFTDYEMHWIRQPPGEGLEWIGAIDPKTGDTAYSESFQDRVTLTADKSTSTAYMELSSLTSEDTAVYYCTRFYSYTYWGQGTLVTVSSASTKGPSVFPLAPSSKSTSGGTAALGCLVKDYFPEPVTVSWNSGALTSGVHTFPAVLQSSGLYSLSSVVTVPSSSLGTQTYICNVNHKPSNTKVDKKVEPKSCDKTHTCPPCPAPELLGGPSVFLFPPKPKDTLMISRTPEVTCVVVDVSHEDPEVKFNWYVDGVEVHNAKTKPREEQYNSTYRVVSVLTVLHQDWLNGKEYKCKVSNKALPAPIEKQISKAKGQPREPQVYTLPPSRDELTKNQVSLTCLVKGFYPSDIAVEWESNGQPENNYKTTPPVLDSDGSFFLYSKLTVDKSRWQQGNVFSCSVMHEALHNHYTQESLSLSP
light: B1 light
notes: also called Ho Ab T335_19Q
B14: GpH7-A5/GpH7-B3 variant L235_20W/GpL16-k0 (antibody, human IgG1, kappa)
heavy 1: not shown
heavy 2: not shown
light: B1 light
notes: also called He Ab L235_20W
B15: GpH7-A5/GpH7-B3 variant G237_04F/GpL16-k0 (antibody, human IgG1, kappa)
heavy 1: not shown
heavy 2: not shown
light: B1 light
notes: also called He Ab G237_04F
B16: GpH7-A5/GpH7-B3 variant G237_20W/GpL16-k0 (antibody, human IgG1, kappa)
heavy 1: not shown
heavy 2: not shown
light: B1 light
notes: also called He Ab G237_20W
B17: GpH7-A5/GpH7-B3 variant G237_15Y/GpL16-k0 (antibody, human IgG1, kappa)
heavy 1: not shown
heavy 2: not shown
light: B1 light
notes: also called He Ab G237_15Y
B18: GpH7-A5/GpH7-B3 variant G237_09D/GpL16-k0 (antibody, human IgG1, kappa)
heavy 1: not shown
heavy 2: not shown
light: B1 light
notes: also called He Ab G237_09D
B19: GpH7-A5/GpH7-B3 variant L235_04F/GpL16-k0 (antibody, human IgG1, kappa)
heavy 1: not shown
heavy 2: not shown
light: B1 light
notes: also called He Ab L235_04F
B20: GpH7-B3 variant S337_15Y/GpL16-k0 (antibody, human IgG1, kappa)
heavy: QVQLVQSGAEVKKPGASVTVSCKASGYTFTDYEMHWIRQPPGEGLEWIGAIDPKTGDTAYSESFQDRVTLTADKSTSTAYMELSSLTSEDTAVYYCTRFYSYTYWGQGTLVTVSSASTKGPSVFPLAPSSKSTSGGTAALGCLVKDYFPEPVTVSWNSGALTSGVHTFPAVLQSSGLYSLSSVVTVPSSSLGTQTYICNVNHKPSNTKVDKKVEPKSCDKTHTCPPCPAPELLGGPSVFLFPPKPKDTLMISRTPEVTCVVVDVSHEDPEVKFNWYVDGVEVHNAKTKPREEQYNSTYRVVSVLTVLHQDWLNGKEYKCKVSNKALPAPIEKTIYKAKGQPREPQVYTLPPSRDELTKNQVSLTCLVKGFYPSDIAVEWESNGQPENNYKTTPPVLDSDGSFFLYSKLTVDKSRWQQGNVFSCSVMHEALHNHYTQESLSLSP
light: B1 light
notes: also called Ho Ab S337_15Y
B21: GpH7-B3 variant T335_15Y/GpL16-k0 (antibody, human IgG1, kappa)
heavy: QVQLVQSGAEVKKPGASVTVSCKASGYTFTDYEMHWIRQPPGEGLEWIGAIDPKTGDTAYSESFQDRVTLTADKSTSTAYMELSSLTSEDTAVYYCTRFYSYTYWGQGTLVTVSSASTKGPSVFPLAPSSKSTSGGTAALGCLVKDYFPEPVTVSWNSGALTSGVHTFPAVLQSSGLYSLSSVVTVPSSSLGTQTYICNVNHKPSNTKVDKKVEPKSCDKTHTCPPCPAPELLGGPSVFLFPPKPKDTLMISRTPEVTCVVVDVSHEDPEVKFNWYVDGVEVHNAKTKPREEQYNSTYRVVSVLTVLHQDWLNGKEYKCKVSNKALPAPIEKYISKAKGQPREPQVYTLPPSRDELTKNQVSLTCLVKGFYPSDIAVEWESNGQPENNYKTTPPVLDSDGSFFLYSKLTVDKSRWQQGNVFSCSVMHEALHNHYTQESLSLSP
light: B1 light
notes: also called Ho Ab T335_15Y
B22: GpH7-A5/GpH7-B3 variant G237_13S/GpL16-k0 (antibody, human IgG1, kappa)
heavy 1: not shown
heavy 2: not shown
light: B1 light
notes: also called He Ab G237_13S
B23: GpH7-A5/GpH7-B3 variant K326_20W/GpL16-k0 (antibody, human IgG1, kappa)
heavy 1: not shown
heavy 2: not shown
light: B1 light
notes: also called He Ab K326_20W
B24: GpH7-B3 variant T335_10E/GpL16-k0 (antibody, human IgG1, kappa)
heavy: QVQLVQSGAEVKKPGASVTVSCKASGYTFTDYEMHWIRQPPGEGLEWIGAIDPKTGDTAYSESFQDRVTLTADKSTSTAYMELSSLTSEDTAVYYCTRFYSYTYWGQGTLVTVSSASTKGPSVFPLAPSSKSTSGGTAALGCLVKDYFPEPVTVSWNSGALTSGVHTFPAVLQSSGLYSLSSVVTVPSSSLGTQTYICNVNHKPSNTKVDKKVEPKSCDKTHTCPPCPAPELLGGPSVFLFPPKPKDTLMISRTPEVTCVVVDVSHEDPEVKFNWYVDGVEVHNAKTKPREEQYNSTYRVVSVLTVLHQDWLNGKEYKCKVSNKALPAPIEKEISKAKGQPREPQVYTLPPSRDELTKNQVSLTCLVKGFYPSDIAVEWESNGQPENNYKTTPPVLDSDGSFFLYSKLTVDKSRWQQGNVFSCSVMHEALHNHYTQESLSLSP
light: B1 light
notes: also called Ho Ab T335_10E
B25: GpH7-A5/GpH7-B3 variant A327_18N/GpL16-k0 (antibody, human IgG1, kappa)
heavy 1: not shown
heavy 2: not shown
light: B1 light
notes: also called He Ab A327_18N
B26: GpH7-B3 variant T335_16H/GpL16-k0 (antibody, human IgG1, kappa)
heavy: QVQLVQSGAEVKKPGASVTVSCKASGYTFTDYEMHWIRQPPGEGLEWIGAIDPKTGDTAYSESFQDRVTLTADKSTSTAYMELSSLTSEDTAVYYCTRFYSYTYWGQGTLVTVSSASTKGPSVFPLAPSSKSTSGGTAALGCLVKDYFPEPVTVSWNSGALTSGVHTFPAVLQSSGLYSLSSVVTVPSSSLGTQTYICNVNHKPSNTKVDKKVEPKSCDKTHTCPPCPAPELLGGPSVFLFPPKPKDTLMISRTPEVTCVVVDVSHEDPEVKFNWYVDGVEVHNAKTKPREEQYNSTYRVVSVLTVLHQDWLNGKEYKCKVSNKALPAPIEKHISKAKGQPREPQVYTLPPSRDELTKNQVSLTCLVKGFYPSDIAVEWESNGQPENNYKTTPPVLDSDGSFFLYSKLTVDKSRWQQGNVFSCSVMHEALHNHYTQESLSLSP
light: B1 light
notes: also called Ho Ab T335_16H
B27: GpH7-A5/GpH7-B3 variant G237_18N/GpL16-k0 (antibody, human IgG1, kappa)
heavy 1: not shown
heavy 2: not shown
light: B1 light
notes: also called He Ab G237_18N

Key:
FcγRIIb [1] = target: T1, FcγRIIb (human, UniProt P31994 43-217); assay: SPR (Biacore), binding relative to GpH7-B3/GpL16-k0 = 100
T1 construct: extracellular domain; also called 2b; FcgRIIb
T1 sequence (looked up): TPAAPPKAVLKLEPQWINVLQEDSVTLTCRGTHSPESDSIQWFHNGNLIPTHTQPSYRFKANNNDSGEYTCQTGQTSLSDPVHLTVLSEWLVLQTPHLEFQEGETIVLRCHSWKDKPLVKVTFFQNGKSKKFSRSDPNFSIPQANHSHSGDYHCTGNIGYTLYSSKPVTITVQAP
Description: (§1) Analysis of interaction between objective antibody and the FcγR was carried out using Biacore T100 (GE Healthcare). HBS-EP+ (GE Healthcare) was used as the running buffer, and the measurement temperature was set to 25° C. Chips produced by immobilizing the antigen peptide by the amine coupling method to a Series S Sencor Chip CM5 (GE Healthcare), or alternatively, chips produced by allowing preliminarily biotinylated antigen peptides to interact with and immobilize onto a Series S Sensor Chip SA (certified) (GE Healthcare) were used. Antibodies of interest were captured onto an antigen peptide-immobilized chip, and allowed to interact to each FcγR diluted with running buffer. To regenerate and repeatedly use the chip, the antibodies captured on the chip were washed off by reacting 10 mM glycine-HCl, pH 1.5.
(§2) The FcγR-binding activity of each antibody was assessed primarily using as an indicator the FcγR-binding activity and dissociation constant for FcγR.

FcγRIIb [2] = target: T1, FcγRIIb; assay: SPR (Biacore), binding relative to GpH7-A5/GpH7-B3/GpL16-k0 = 100
Description: as §1, §2

| Binder | Ho/Con_2b (FcγRIIb [1]) | He/Con_2b (FcγRIIb [2]) |
| --- | --- | --- |
| B1 | 175 % of control | – |
| B2 | – | 124 % of control |
| B3 | – | 130 % of control |
| B4 | 231 % of control | – |
| B5 | – | 103 % of control |
| B6 | 95.2 % of control | – |
| B7 | – | 114 % of control |
| B8 | 97 % of control | – |
| B9 | – | 104 % of control |
| B10 | – | 148 % of control |
| B11 | – | 127 % of control |
| B12 | – | 199 % of control |
| B13 | 97.3 % of control | – |
| B14 | – | 147 % of control |
| B15 | – | 149 % of control |
| B16 | – | 193 % of control |
| B17 | – | 152 % of control |
| B18 | – | 223 % of control |
| B19 | – | 118 % of control |
| B20 | 93.4 % of control | – |
| B21 | 104 % of control | – |
| B22 | – | 111 % of control |
| B23 | – | 148 % of control |
| B24 | 108 % of control | – |
| B25 | – | 113 % of control |
| B26 | 97.2 % of control | – |
| B27 | – | 180 % of control |
